Test results reported in US6426205 (MOUNT SINAI HOSPITAL, dated 2002).

T1: MYC-tagged Cdc53 (Saccharomyces cerevisiae, UniProt Q12018 1-815)
T1 construct: Expressed from the wild type promoter on a CEN plasmid in yeast and immunoprecipitated with 9E10 anti-MYC; also called Cdc53^M; Cdc53^MYC6
T1 sequence: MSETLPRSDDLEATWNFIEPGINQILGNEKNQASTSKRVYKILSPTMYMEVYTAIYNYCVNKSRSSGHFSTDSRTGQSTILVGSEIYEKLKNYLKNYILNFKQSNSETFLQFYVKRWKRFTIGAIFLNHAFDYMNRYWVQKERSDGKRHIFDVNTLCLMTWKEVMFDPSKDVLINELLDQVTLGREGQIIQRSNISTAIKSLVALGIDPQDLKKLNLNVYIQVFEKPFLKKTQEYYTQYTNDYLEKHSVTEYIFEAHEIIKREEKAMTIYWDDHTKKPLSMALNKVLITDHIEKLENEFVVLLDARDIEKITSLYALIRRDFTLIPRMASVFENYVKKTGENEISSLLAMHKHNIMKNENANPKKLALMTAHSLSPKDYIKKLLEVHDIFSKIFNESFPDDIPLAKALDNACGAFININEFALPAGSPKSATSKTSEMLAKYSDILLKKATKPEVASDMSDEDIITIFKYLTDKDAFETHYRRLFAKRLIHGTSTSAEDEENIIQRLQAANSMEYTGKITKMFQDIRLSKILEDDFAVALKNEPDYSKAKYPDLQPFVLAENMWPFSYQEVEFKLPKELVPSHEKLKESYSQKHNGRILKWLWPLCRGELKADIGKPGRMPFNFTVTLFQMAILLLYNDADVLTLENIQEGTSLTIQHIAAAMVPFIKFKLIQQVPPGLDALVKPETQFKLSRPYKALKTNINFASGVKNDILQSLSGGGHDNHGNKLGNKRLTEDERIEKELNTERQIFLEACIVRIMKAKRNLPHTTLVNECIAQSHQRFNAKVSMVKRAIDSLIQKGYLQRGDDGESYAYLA

T2: Cdc53^Δ9-280 (MYC-tagged) (Saccharomyces cerevisiae, UniProt Q12018 1-815)
T2 construct: Deletion built with natural and engineered restriction sites; also called CDC53^MΔ9-280; pMT1850
T2 sequence: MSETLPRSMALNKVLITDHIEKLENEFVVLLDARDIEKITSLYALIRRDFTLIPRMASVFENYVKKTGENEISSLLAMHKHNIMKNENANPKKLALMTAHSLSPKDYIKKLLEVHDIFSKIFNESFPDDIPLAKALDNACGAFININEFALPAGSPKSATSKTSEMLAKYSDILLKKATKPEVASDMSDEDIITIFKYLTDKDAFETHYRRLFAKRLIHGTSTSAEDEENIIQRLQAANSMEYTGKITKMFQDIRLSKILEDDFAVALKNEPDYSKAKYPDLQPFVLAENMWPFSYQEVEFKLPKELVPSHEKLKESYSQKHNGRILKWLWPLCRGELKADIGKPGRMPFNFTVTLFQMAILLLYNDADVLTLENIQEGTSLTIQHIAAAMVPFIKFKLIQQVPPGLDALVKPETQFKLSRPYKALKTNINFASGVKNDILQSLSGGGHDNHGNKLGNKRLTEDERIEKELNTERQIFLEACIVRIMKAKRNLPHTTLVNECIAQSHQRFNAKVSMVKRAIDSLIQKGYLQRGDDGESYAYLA

T3: Cdc53 with deletion of residues 448-748 (MYC-tagged) (Saccharomyces cerevisiae, UniProt Q12018 1-815)
T3 construct: The limits of the text are used here; also called Cdc53 internal deletion
T3 sequence: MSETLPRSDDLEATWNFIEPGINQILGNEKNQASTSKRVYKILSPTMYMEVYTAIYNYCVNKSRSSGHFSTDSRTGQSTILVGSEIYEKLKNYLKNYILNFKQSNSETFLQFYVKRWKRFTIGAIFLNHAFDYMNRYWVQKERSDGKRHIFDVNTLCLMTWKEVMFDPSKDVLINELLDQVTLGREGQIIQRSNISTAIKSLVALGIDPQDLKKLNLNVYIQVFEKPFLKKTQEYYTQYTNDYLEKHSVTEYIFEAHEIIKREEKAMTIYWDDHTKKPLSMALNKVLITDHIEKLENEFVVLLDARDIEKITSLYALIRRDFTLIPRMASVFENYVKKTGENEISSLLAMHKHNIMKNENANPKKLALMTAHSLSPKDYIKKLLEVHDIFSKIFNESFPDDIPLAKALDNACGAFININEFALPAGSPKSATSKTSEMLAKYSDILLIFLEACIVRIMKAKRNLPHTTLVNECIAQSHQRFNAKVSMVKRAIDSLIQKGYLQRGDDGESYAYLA

T4: Cdc53-Y48W, M49E^MYC6 (Saccharomyces cerevisiae, UniProt Q12018 1-815)
T4 construct: also called mutant Cdc53; pMT1939-1943
T4 sequence: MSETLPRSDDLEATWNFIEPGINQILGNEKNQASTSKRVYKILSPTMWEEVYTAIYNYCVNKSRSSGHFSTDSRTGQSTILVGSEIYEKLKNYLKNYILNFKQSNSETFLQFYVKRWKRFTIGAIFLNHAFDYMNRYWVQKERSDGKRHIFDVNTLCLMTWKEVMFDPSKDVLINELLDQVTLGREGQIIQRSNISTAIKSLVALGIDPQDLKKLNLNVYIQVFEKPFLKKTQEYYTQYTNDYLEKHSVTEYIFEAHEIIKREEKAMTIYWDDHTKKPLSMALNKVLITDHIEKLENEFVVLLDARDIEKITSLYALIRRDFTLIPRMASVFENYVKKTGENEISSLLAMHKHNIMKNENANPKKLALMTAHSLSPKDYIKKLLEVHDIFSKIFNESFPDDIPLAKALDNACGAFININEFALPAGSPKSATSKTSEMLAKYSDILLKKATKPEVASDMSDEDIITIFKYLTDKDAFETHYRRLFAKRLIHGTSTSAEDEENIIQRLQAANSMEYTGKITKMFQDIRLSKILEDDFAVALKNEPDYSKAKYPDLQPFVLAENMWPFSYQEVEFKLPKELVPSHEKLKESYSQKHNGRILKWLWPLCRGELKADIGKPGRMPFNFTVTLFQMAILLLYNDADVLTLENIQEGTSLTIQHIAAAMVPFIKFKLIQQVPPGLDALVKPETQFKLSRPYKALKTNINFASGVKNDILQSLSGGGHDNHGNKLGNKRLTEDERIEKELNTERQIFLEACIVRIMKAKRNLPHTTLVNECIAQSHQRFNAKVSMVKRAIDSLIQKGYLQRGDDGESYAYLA

B1: Cdc34 (enzyme, budding yeast, UniProt P14682 1-295, looked up)
chain: MSSRKSTASSLLLRQYRELTDPKKAIPSFHIELEDDSNIFTWNIGVMVLNEDSIYHGGFFKAQMRFPEDFPFSPPQFRFTPAIYHPNVYRDGRLCISILHQSGDPMTDEPDAETWSPVQTVESVLISIVSLLEDPNINSPANVDAAVDYRKNPEQYKQRVKMEVERSKQDIPKGFIMPTSESAYISQSKLDEPESNKDMADNFWYDSDLDDDENGSVILQDDDYDDGNNHIPFEDDDVYNYNDNDDDDERIEFEDDDDDDDDSIDNDSVMDRKQPHKAEDESEDVEDVERVSKKI
notes: Endogenous protein in yeast lysates, detected with anti-Cdc34 antibodies; also called endogenous Cdc34

Legend:
[1] = target: T1, MYC-tagged Cdc53; assay: anti-MYC immunoprecipitation from yeast lysate, immunoblot
[2] = target: T2, Cdc53^Δ9-280 (MYC-tagged); assay: as above
[3] = target: T3, Cdc53 with deletion of residues 448-748 …; assay: as above
[4] = target: T4, Cdc53-Y48W, M49E^MYC6; assay: anti-MYC immunoprecipitation from yeast lysate, western blot
Method: This powder was thawed, spun to remove cellular debris, and cleared by spinning in ultracentrifuge. Protein concentration in the lysate was adjusted to 24 mg/ml in a volume of 1.25 ml lysis buffer+10 mM N-ethyl maleimide, for a final mass of 30 mg protein for each strain. 25 µl of a 50% slurry in lysis buffer of protein-A beads (Pierce) cross-linked with dimethyl suberimidate to the anti-MYC monoclonal antibody 9E10 was added to each lysate, incubated with gentle rocking at 4° C. for several hours, washed several times with lysis buffer, aspirated, resuspended in protein sample buffer, and run on two 10% polyacrylamide gels. One gel was transferred to polyvinylidene fluoride membrane and western blotted with anti-MYC, anti-Cdc34, and anti-Skp1 antibodies (FIG. 12A).

[5] = target: T5, Skp1 (budding yeast); assay: anti-MYC immunoprecipitation from yeast lysate, immunoblot
T5 construct: Endogenous protein in yeast lysates, detected with anti-Skp1 antibodies; also called endogenous Skp1

[6] = target: B1; assay: as above

T5 sequence (chain, as listed by the source limits assumed): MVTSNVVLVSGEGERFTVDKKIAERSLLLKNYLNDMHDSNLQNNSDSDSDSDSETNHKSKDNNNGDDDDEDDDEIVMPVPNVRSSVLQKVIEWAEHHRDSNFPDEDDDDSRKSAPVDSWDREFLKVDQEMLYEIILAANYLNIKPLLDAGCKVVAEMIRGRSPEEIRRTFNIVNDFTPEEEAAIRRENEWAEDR

Row | binding result [1] | binding result [2] | binding result [3] | binding result [4] | binding result [5] | binding result [6] | Binder
1 | binds | binds | no binding | binds |  |  | B1
2 |  |  |  |  | binds | binds | Cdc53 with IVRIMK (residues 755-760) mutated to polyalanine (MYC-tagged) (other, not shown: small tags and cut ends, also called CDC53^MIVRIMK; pMT1859) MSETLPRSDDLEATWNFIEPGINQILGNEKNQASTSKRVYKILSPTMYMEVYTAIYNYCVNKSRSSGHFSTDSRTGQSTILVGSEIYEKLKNYLKNYILNFKQSNSETFLQFYVKRWKRFTIGAIFLNHAFDYMNRYWVQKERSDGKRHIFDVNTLCLMTWKEVMFDPSKDVLINELLDQVTLGREGQIIQRSNISTAIKSLVALGIDPQDLKKLNLNVYIQVFEKPFLKKTQEYYTQYTNDYLEKHSVTEYIFEAHEIIKREEKAMTIYWDDHTKKPLSMALNKVLITDHIEKLENEFVVLLDARDIEKITSLYALIRRDFTLIPRMASVFENYVKKTGENEISSLLAMHKHNIMKNENANPKKLALMTAHSLSPKDYIKKLLEVHDIFSKIFNESFPDDIPLAKALDNACGAFININEFALPAGSPKSATSKTSEMLAKYSDILLKKATKPEVASDMSDEDIITIFKYLTDKDAFETHYRRLFAKRLIHGTSTSAEDEENIIQRLQAANSMEYTGKITKMFQDIRLSKILEDDFAVALKNEPDYSKAKYPDLQPFVLAENMWPFSYQEVEFKLPKELVPSHEKLKESYSQKHNGRILKWLWPLCRGELKADIGKPGRMPFNFTVTLFQMAILLLYNDADVLTLENIQEGTSLTIQHIAAAMVPFIKFKLIQQVPPGLDALVKPETQFKLSRPYKALKTNINFASGVKNDILQSLSGGGHDNHGNKLGNKRLTEDERIEKELNTERQIFLEACAAAAAAAKRNLPHTTLVNECIAQSHQRFNAKVSMVKRAIDSLIQKGYLQRGDDGESYAYLA
